Results: article PMC5966295, “Crystal structures of murine and human Histamine-Releasing Factor (HRF/TCTP) and a model for HRF dimerisation in mast cell activation” (Molecular Immunology, 2018)

Target: the molecule itself
Assay: crystal structure; hHRF-2 crystal form, 1.4 Å; crystals grown at 18 °C in 0.1 M MES pH6.0 and 20% (w/v) PEG 2000 MME; two molecules in the asymmetric unit, disulphide-linked dimer

B1: human Histamine-Releasing Factor (natural protein, UniProt P13693 1-172, looked up)
chain: MIIYRDLISHDEMFSDIYKIREIADGLCLEVEGKMVSRTEGNIDDSLIGGNASAEGPEGEGTESTVITGVDIVMNHHLQETSFTKEAYKKYIKDYMKSIKGKLEEQRPERVKPFMTGAAEQIKHILANFKNYQFFIGENMNPDGMVALLDYREDGVTPYMIFFKDGLEMEKC
notes: Histamine-Releasing Factor (HRF/TCTP), human, wild type; Met1 to Cys172, followed by the C-terminal purification tag Leu173-His180; The tag is ordered in the crystals and contributes about 25% of the hHRF-2 dimer interface; In hHRF-2 the two chains are joined by an intermolecular disulphide bond Cys172-Cys172; also called hHRF; HRF; source: prepared according to a previously described protocol …
  stoichiometry N: 2
